# T1: recombinant transforming ras p21 (human)
# T1 chain: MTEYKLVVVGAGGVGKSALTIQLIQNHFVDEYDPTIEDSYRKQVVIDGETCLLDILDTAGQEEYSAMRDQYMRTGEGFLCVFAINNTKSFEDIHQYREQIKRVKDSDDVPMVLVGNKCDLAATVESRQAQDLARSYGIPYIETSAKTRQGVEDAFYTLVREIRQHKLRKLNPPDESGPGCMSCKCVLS
# Target: T1, recombinant transforming ras p21
# Experiment: cell-based or functional assay
# Details: not given
row,Molecule,Present Inhibition of ras-Induced Maturation
1,VVI [Val-Val-Ile],34 percent
2,KCDLA [peptide of SEQ ID NO:2 (residues 117 to 121 of SEQ ID NO:5)],38 percent
3,TIEDSYRKQVVID [peptide of SEQ ID NO:6 (residues 35 through 47 of SEQ ID NO:5)],28 percent
4,DLAA [peptide of SEQ ID NO:4 (residues 119 to 122 of SEQ ID NO:5)],22 percent
5,CDLAART [peptide of SEQ ID NO:9 (residues 118 to 124 of SEQ ID NO:5)],65 percent
6,YREQIKRVKDSDDVP [peptide of SEQ ID NO:7 (residues 96 to 110 of SEQ ID NO:5)],56 percent
7,GNKCDLAARTVE [peptide of SEQ ID NO:8 (residues 115 to 126 of SEQ ID NO:5)],92 percent
8,KRV [Lys-Arg-Val],22 percent
9,IKRVKD [peptide of SEQ ID NO:1 (residues 100 to 105 of SEQ ID NO:5)],76 percent

# Test system: oncogenic ras-p-21
# Experiment: not given
# Details: background; cited from earlier work
row,Molecule,inhibition of oncogenic ras-p-21
1,N[C@@H](Cc1ccc(O)cn1)C(=O)O [Azatyrosine],strongly inhibits

# Reference: patent publication US5910478A, “Peptidomimetics inhibiting the oncogenic action of p21 ras” (Innapharma, Inc., dated 1999)
